From patent publication US20260184814A1 (priority 2022, published 2026)

Columns and labels:
[1] = system: BNA7 from B/Perth/211/2011
[2] = FIG. 50B; parameters: CLEARANCE (μg/ml): unit not given here
[3] = FIG. 32
[4] = system: pseudovirus-derived neuraminidase; type: biochemical, influenza A virus
[5] = molecular target: IAV and IBV NA antigens; type: binding, influenza A virus, influenza B virus
[6] = molecular target: N1 and N2 neuraminidases; type: biochemical, influenza A virus
[7] = molecular target: group I (H1N1) IAV, group II (H3N2) IAV, and IBV NAs; type: biochemical, influenza A virus, influenza B virus
[8] = system: N9 from A/Anhui/1/2013; type: binding

FNI9
IC50 [1]: 23.209 mg/mL

FNI9-LS
AUC [2]: 527.46 ± 75.92 µg·days/mL | CLEARANCE (μg/ml) [2]: 1.47 ± 0.19 | HALF-LIFE [2]: 13.37 ± 1.52 days | AUCLAST [3]: 254.583 µg·days/mL | CLss [3]: 1.944 mL/day | HALF-LIFE [3]: 14.198 days | LAMBDA_Z [3]: 0.05 day⁻¹ | Vz [3]: 40.281 mL

FNI9-v8.1: FNI9 variant with S28T in VH; VH SEQ ID NO:54, VL SEQ ID NO:8
IC50 for inhibiting sialidase activity in an ELLA assay [4]: lower IC50 | affinity by surface plasmon resonance [5]: higher affinity | IC50 for inhibiting sialidase activity in a MUNANA assay [6]: lower IC50 | in vitro inhibition of sialidase activity (reported as IC50) [7]: improved | binding to N9_A_Anhui_2013, assessed by flow cytometry [8]: binds more strongly
